Source: US20110165145A1 (published 2011)
Positions count from the first letter of the chain named. One block for each binder: values may come before it.

Tests used:
[1] = biological target: T1, insulin-like growth factor I (IGF-I) (UniProt P05019 49-118); assay: cell-based or functional assay
[2] = biological target: T2, insulin-like growth factor II (IGF-II), amino acids 1-67 (human, UniProt P01344 25-91); assay: SPR, compared with DX-2647
T2 construct: recombinant; also called IGF-II (67aa); IGF2
T2 sequence (P01344 25-91): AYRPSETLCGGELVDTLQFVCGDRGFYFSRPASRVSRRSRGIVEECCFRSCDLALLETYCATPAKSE

[3] = biological target: T2, insulin-like growth factor II (IGF-II), …; assay: cell-based or functional assay
[4] = biological target: T3, IGF-IIE (amino acids 1-104 of pro-IGF-II) (human, UniProt P01344 25-128); assay: cell-based or functional assay
T3 sequence (P01344 25-128): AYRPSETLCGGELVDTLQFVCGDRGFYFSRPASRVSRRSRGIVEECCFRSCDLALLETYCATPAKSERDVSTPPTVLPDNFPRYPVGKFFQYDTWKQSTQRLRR

[5] = biological target: T2, insulin-like growth factor II (IGF-II), …; assay: SPR (Flexchip), Fab, 1st of duplicate
[6] = biological target: T3, IGF-IIE (amino acids 1-104 of …); assay: SPR (Flexchip), Fab, 1st of duplicate
[7] = biological target: T2, insulin-like growth factor II (IGF-II), …; assay: SPR (Flexchip), Fab, 2nd of duplicate
[8] = biological target: T3, IGF-IIE (amino acids 1-104 of …); assay: SPR (Flexchip), Fab, 2nd of duplicate
[9] = biological target: T2, insulin-like growth factor II (IGF-II), …; assay: SPR (value equals that of Table 6, there under IgGs); Fab, not IgG
[10] = biological target: T2, insulin-like growth factor II (IGF-II), …; assay: competition SPR (BIACORE T100), affinity in solution, free ligand read on huIR-A ECD; measurement 1
Experimental: (§1) Competition SPR (BIACORE®) was performed under conditions of partially mass-transport limited conditions according to previously described methodology (Nieba et al., 1996). Approximately 16,700 relative response units (RU) of huIR-A (-exon11) ectodomain was coupled by standard amine chemistry to a BIACORE® CM5 chip sensor. Uncoated flow-cell surface was used as a reference. […] Regeneration of the surface was achieved by injection of 30 ul NaCltrate/NaCl pH 4.5. […] These Req estimates were subsequently plotted against total concentrations of Fab used and the resulting inhibition curve was utilised to calculate dissociation constant (KD).

[11] = biological target: T3, IGF-IIE (amino acids 1-104 of …); assay: as above
Experimental: as §1

[12] = biological target: T2, insulin-like growth factor II (IGF-II), …; assay: competition SPR (BIACORE T100), affinity in solution, free ligand read on huIR-A ECD; measurement 2
Experimental: as §1

[13] = biological target: T3, IGF-IIE (amino acids 1-104 of …); assay: as above
Experimental: as §1

[14] = biological target: T1, insulin-like growth factor I (IGF-I); assay: SPR
[15] = biological target: T2, insulin-like growth factor II (IGF-II), …; assay: SPR, captured IgG, 1:1 binding model
[16] = biological target: T3, IGF-IIE (amino acids 1-104 of …); assay: SPR, captured IgG, 1:1 binding model
[17] = biological target: T1, insulin-like growth factor I (IGF-I); assay: SPR, captured IgG, 1:1 binding model
[18] = biological target: T2, insulin-like growth factor II (IGF-II), …; assay: SPR, IgG captured on anti-human Fc chip, ligand as analyte
[19] = biological target: T4, IGFBP-1 (UniProt P08833 26-259); assay: SPR: DX-2647 captured through its Fc, IGFBP-1 alone injected; concentration not on the sheet
T4 sequence (looked up): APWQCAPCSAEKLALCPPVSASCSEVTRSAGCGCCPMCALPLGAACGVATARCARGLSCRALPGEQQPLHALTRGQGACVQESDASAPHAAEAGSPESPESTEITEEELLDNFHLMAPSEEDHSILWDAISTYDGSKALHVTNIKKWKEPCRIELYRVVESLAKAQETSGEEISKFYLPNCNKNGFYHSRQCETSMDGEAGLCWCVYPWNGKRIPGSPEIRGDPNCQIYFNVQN

[20] = biological target: pre-formed complex of IGF-II and IGFBP-1 (human, UniProt P08833 26-259); assay: SPR: DX-2647 captured through its Fc, pre-formed IGF-II/IGFBP-1 complex injected; concentration not on the sheet

T1 sequence (P05019 49-118 limits assumed): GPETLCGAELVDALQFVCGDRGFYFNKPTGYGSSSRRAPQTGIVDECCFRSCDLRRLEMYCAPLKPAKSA

IGF-I stimulated Ba/F3 cell proliferation, sFab at 50 µg/ml [1]: ~30 % inhibition
fold less affinity than DX-2647 [2]: 7 fold
IC50, IGF-II stimulated Ba/F3 cell proliferation (MTS) [3]: 0.68 µg/mL
IC50, IGF-IIE stimulated Ba/F3 cell proliferation (MTS) [4]: 3.12 µg/mL
Kd [5]: 0.45 nM
Kd [6]: 0.32 nM
Kd [7]: 1.2 nM
Kd [8]: 0.29 nM
Kd [9]: 0.14 nM
Kd [10]: 1.03 nM
Kd [11]: 1.91 nM
Kd [12]: 0.503 nM
Kd [13]: 0.352 nM
B1: M0064-F02 Fab (Fab, V domains shown)
VH: EVQLLESGGGLVQPGGSLRLSCAASGFTFSNYIMWWVRQAPGKGLEWVSVISSSGGMTRYADSVKGRFTISRDNSKNTLYLQMNSLRAEDTAVYYCARDNGDYVGEKGFDIWGQGTMVTVSS
VL: DIQMTQSPSSLSASVGDRVTITCRASQSISNYLNWYQQKPGKAPKLLIYTASTLQSGVPSRFSGSASGTDFTLTINSLQPEDFATYSCQQSYNSPWTFGQGTKVEIKR
notes: soluble Fab (sFab); also the Fab crystallised with IGF-II; also called R0032-A11; 566A-M0064-F02

Kd [14]: 28 nM
Kd [15]: 0.0226 nM
koff [15]: 2.38e-05 s⁻¹
kon [15]: 1.06e+06 M⁻¹ s⁻¹
Kd [16]: < 0.023 nM
koff [16]: < 2e-05 s⁻¹
kon [16]: 2.06e+06 M⁻¹ s⁻¹
Kd [17]: 17 nM
koff [17]: 0.1 s⁻¹
kon [17]: 5.8e+06 M⁻¹ s⁻¹
Kd [18]: 0.023 nM
binding result [19]: no binding
binding result [20]: no binding
B2: DX-2647 (antibody, human IgG1, kappa, V domains shown)
VH: B1 VH with M57G, R59L
VL: B1 VL with A66G, N76S, S87Y
notes: human IgG1, germlined from 566A-M0064-F02, expressed in CHOK1SV cells
